Data reported in the supplement of paper PMC11246515.
± gives the standard deviation of the averaged measurements.

Assay: total protein half-life in vivo (active degradation + dilution); higher = more stable protein
[1] = wild type E. coli NCM3722, growth: N-lim chemostat, doubling time 12 h
[2] = E. coli NCM3722 delta-clpP delta-lon delta-hslV, growth: N-lim chemostat, doubling time 6 h
[3] = E. coli NCM3722 delta-clpP, growth: N-lim chemostat, doubling time 6 h
[4] = E. coli NCM3722 delta-hslV, growth: N-lim chemostat, doubling time 6 h
[5] = E. coli NCM3722 delta-lon, growth: N-lim chemostat, doubling time 6 h
[6] = E. coli NCM3722 delta-smpB, growth: N-lim chemostat, doubling time 6 h
[7] = wild type E. coli NCM3722, growth: C-lim chemostat, doubling time 3 h
[8] = wild type E. coli NCM3722, growth: C-lim chemostat, doubling time 6 h
[9] = wild type E. coli NCM3722, growth: C-lim chemostat, doubling time 12 h
[10] = wild type E. coli NCM3722, growth: N-lim chemostat, doubling time 6 h
[11] = wild type E. coli NCM3722, growth: P-lim chemostat, doubling time 6 h
[12] = wild type E. coli NCM3722, growth: P-lim chemostat, doubling time 12 h

Sequence | total protein half-life in vivo [1] [h] | total protein half-life in vivo [2] [h] | total protein half-life in vivo [3] [h] | total protein half-life in vivo [4] [h] | total protein half-life in vivo [5] [h] | total protein half-life in vivo [6] [h] | total protein half-life in vivo [7] [h] | total protein half-life in vivo [8] [h] | total protein half-life in vivo [9] [h] | total protein half-life in vivo [10] [h] | total protein half-life in vivo [11] [h] | total protein half-life in vivo [12] [h]
MNKLQSYFIASVLYVMTPHAFAQGTVTIYLPGEQQTLSVGPVENVVQLVTQPQLRDRLWWPGALLTDSAAKAKALKDYQHVMAQLASWEAEADDDVAATIKSVRQQLLNLNITGRLPVKLDPDFVRVDENSNPPLVGDYTLYTVQRPVTITLLGAVSGAGQLPWQAGRSVTDYLQDHPRLAGADKNNVMVITPEGETVVAPVALWNKRHVEPPPGSQLWLGFSAHVLPEKYADLNDQIVSVLTQRVPD | 7.71 | – | – | – | – | – | – | – | – | – | – | –
MGIFKAKNPCTKNTIFTTSNTLIYGGFMISLNDFYEQICRKRRDLAYHMSECEWAVDTDVLEEDHPEIRIELGRMREQFWSSEKIGTRVRLYSCDVPWETRHHTVNGQLEIKEEYTELYDPAQECWKNLSSNLTKETFLPLVIEPFSINDIFKAHLMFASISFFWGKSIMSENENVAFKAFHRAAELFDKCIGMTWFNISVCNQKKLSEVRRSAGKKGGKSKAEVYHIIQLKLVELINDSVPNDGWKNKVVAVNELIEPLWDFIQMSEFEINNQNKKYRVATMSQDALVDTILNQWSLKNEDVKQAFDSAVRRKKRSK | – | 5.49 ± 0.65 | – | – | – | – | – | – | – | – | – | –
MYQPDFPPVPFRSGLYPVVDSVQWIERLLDAGVRTLQLRIKDRRDEEVEADVVAAIALGRRYNARLFINDYWRLAIKHQAYGVHLGQEDLQATDLNAIRAAGLRLGVSTHDDMEIDVALAARPSYIALGHVFPTQTKQMPSAPQGLEQLARHVERLADYPTVAIGGISLARAPAVIATGVGSIAVVSAITQAADWRLATAQLLEIAGVGDE | 5.18 ± 0.5 | 6.1 ± 1.1 | 3.05 ± 0.11 | 3.34 ± 0.23 | 4.173 ± 0.028 | 2.77 ± 0.045 | 2.31 ± 0.52 | 4.76 ± 0.58 | 6.78 ± 0.74 | 3.01 ± 0.54 | 2.01 ± 0.57 | 3.48 ± 0.66
MDLRRFITLKTVVEEGSFLRASQKLCCTQSTVTFHIQQLEQEFSVQLFEKIGRRMCLTREGKKLLPHIYELTRVMDTLREAAKKESDPDGELRVVSGETLLSYRMPQVLQRFRQRAPKVRLSLQSLNCYVIRDALLNDEADVGVFYRVGNDDALNRRELGEQSLVLVASPQIADVDFTEPGRHNACSFIINEPQCVFRQIFESTLRQRRITVENTIELISIESIKRCVAANIGVSYLPRFAVAKELECGELIELPFGEQSQTITAMCAHHAGKAVSPAMHTFIQCVEESFVAG | 6.51 | 5.31 ± 0.83 | > 8 | 4.13 | 4.83 | 3.41 | – | 4.86 | 8.259 ± 0.077 | 4.37 ± 0.49 | 5.85 | 7.91
MSDISKASLPKAIFLMGPTASGKTALAIELRKILPVELISVDSALIYKGMDIGTAKPNAEELLAAPHRLLDIRDPSQAYSAADFRRDALAEMADITAAGRIPLLVGGTMLYFKALLEGLSPLPSADPEVRARIEQQAAEQGWESLHRQLQEVDPVAAARIHPNDPQRLSRALEVFFISGKTLTELTQTSGDALPYQVHQFAIAPASRELLHQRIEQRFHQMLASGFEAEVRALFARGDLHTDLPSIRCVGYRQMWSYLEGEISYDEMVYRGVCATRQLAKRQITWLRGWEGVHWLDSEKPEQARDEVLQVVGAIAG | 6.84 ± 1.1 | – | 4.338 ± 0.019 | 5.26 ± 1.1 | 5.42 ± 0.37 | 4.279 ± 0.03 | 3.18 ± 0.12 | 5.47 ± 0.15 | 8.97 ± 0.41 | 4.32 ± 0.4 | 5.67 ± 0.43 | 11.71 ± 0.1
MKKIAITCALLSSLVASSVWADAASDLKSRLDKVSSFHASFTQKVTDGSGAAVQEGQGDLWVKRPNLFNWHMTQPDESILVSDGKTLWFYNPFVEQATATWLKDATGNTPFMLIARNQSSDWQQYNIKQNGDDFVLTPKASNGNLKQFTINVGRDGTIHQFSAVEQDDQRSSYQLKSQQNGAVDAAKFTFTPPQGVTVDDQRK | 12.5 ± 0.7 | 4.62 ± 0.5 | 5.76 ± 1 | 7.06 ± 1.3 | – | – | 3.364 ± 0.025 | 5.679 ± 0.056 | 9.08 ± 0.39 | 6.25 ± 0.41 | 5.978 ± 0.007 | 12.124 ± 0.011
MKLFAQGTSLDLSHPHVMGILNVTPDSFSDGGTHNSLIDAVKHANLMINAGATIIDVGGESTRPGAAEVSVEEELQRVIPVVEAIAQRFEVWISVDTSKPEVIRESAKVGAHIINDIRSLSEPGALEAAAETGLPVCLMHMQGNPKTMQEAPKYDDVFAEVNRYFIEQIARCEQAGIAKEKLLLDPGFGFGKNLSHNYSLLARLAEFHHFNLPLLVGMSRKSMIGQLLNVGPSERLSGSLACAVIAAMQGAHIIRVHDVKETVEAMRVVEATLSAKENKRYE [P0AC13] | 6.23 ± 0.25 | 4.15 ± 0.55 | 3.78 ± 0.098 | 4.96 ± 1.8 | 4.16 ± 0.19 | 3.72 ± 0.14 | 2.881 ± 0.016 | 4.48 ± 0.86 | – | 3.94 ± 0.15 | 5.63 ± 0.14 | 11.3 ± 0.29
MAGINLNKKLWRIPQQGMVRGVCAGIANYFDVPVKLVRILVVLSIFFGLALFTLVAYIILSFALDPMPDNMAFGEQLPSSSELLDEVDRELAASETRLREMERYVTSDTFTLRSRFRQL [P0AFN2] | 9.24 ± 0.17 | 5.469 ± 0.044 | > 8 | 5.48 ± 0.47 | – | 4.53 ± 0.38 | 2.498 ± 0.015 | 3.81 ± 0.91 | 6.7 ± 3.6 | 4.862 ± 0.037 | 7.55 | 10 ± 0.79
MSQLPGLSRETRESIAMYHLRVPQTEEELERYYQFRWEMLRKPLHQPKGSERDAWDAMAHHQMVVDEQGNLVAVGRLYINADNEASIRFMAVHPDVQDKGLGTLMAMTLESVARQEGVKRVTCSAREDAVEFFAKLGFVNQGEITTPTTTPIRHFLMIKPVATLDDILHRGDWCAQLQQAWYEHIPLSEKMGVRIQQYTGQKFITTMPETGNQNPHHTLFAGSLFSLATLTGWGLIWLMLRERHLGGTIILADAHIRYSKPISGKPHAVADLGALSGDLDRLARGRKARVQMQVEIFGDETPGAVFEGTYIVLPAKPFGPYEEGGNEEE [P0ADQ2] | 8.84 ± 1.4 | 5.56 ± 0.43 | 4.46 ± 0.32 | 5.1 ± 0.92 | 4.93 ± 0.26 | 4.38 ± 0.27 | 2.8559 ± 0.0026 | 5.57 ± 0.27 | 9.83 ± 0.3 | 4.71 ± 0.12 | 5.88 ± 0.23 | 11.8 ± 0.52
